Measurements as given in the nanobody polyreactivity screen of Harvey et al. (2022).

Test: yeast display, Sf9 membrane polyspecificity reagent, FACS + sequencing; frameworks hold sequencing errors
Method in brief: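 A synthetic nanobody library was expressed on Saccharomyces cerevisiae BJ5465 by galactose induction for 36–48 hours. The library was stained for 1 hour at 4 °C with 10% biotinylated, detergent-solubilized Sf9 membrane reagent and enriched with streptavidin microbeads before FACS. Low and high (top ~1%) gates were set on anti-HA fluorescence for expression and streptavidin fluorescence for reagent binding, and each polyreactivity label reflects the gate of origin.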

| Sequence | polyreactivity (PSR sort gate) |
| --- | --- |
| QVQLEESVGGLVQAGGSLRLSCAASGFTFHRYAMGWYTQAPGKERELVAGITRRSGSTFYADSVQGRFTISRDNAKNTVFLQMNSLKPEDTAVYYCAATVPGLHWIYDYWGQGTQVTVSS | high polyreactivity |
| QVQLVESGGGLVQAGGSLRLSCAASGRTFAIYAMGWYRQAPGKERELVATIRGGSTYYADSVKGRFTISRDNAKNTVYLQMNSLKPEDTAVYYCAAGWYRYYGGFGYWGQGTQVTVSS | high polyreactivity |
| QVQLVESGGGLVQAGGSLRLSSAASGRIFRPYAMGWYRPAPGKERELVAIRKSTGSTYYADSVKGRFTISRDNAKITVYLQMNSLKPEHTAVYYCAAPRDWDAGDYWGQGTQVTVSS | high polyreactivity |
| QVQLVESGGGLDQAGGSLRLSCAASGSTVVRYAMGWYRQAPGKEREFVATISRRGGSTYYADSVKGRFTISRDNAKNTVYLQMNSLKPEDTAVYYCAKQGEAALPYIYDHWGQGTQVTVSS | low polyreactivity |
| QVQLVESGGGLVQAGGSLRLSCAASGFTFIKYAMGWYRQAPGKEREFVPTISWNGGNTYYADSVKGRFTISRYNAKNTVYLQMNSLKPEDTAVYYCAARVKYRTRGGTVVSYDYWGQGTQVTVSS | high polyreactivity |
| QVQLVESGGGLVQAGGSLRLSCAPSGITFSHYAMGWYRQAPGKERELVAGITWSGGRTYYADSVKGRFTISRDNAKNTVYLQMNSLKPEDTAVYYCAPIHRTGYDMDYWGLGTQVTVSS | low polyreactivity |
| QVQLVESGGGLVQAGGSLRLSCAASGFTFTAYAMGWYRPAPGKERELVAAISYRGGRTNYAYSVKGRFTISRDNAKNTVYLQMNSLKPEDTAVYYCAARPRISTREMDYWGQGTQVTVSS | high polyreactivity |
| QVQLVESGGGLVQAGGSLRLSCAASGNTFRSYVMGWYRQAPGKERELVADISSGDGTNYADSVKGRFTISRDNAKNTVYLQMNSLKPEDTAVYYCAKDVYNFRTTHSYFTGYDSWGQGTQVTVSS | low polyreactivity |
| QVQLVESGGGLVQAGGSLRLSCAASGRTFIYYAMGWYRQAPGKEREFVAIISWNGTSTNYADSVKGRFTISRDKAKNTVYLQMNSLKPEDTAVYYCAASFWSDYYRYDYWGQGTQVTVSS | low polyreactivity |
| QVQLVESGGGLIQAGGSRRLSCAASGIIFYPYTMGWYRQARGKERELVAAIRQSGTSTYYADSVKGRFTISRDNAKNTVYLQMNSLKPEDTAVYYCNADDHIYWRKGYDYWGQGTQVTVSS | low polyreactivity |
| QVQLVESGGGLVQAGGSLRLSCAASGSIFYPYGMGWYRQAPGKEREFVAAISWSGGTTYYADSVKGRFTISRDNAKNTVYLQMNSLKKEDTGVYYCAAVSFYGVGGTWYNYWGKGTQVTVSS | high polyreactivity |
| QVQLVESGGGLVQAGGSLRLSCAASGRIFKGYAMGWYRQAPGKERELVAAITWRGGTTYYADSVKGRFTISRDNAKNTVYLQMNSLKPEDTAVYYCAAVTRRYVLSTFYYWGQGTQVTVSS | high polyreactivity |
| QVQLVESWGGLVQAGGRLRLSCAASGRIFWRYAMGWYRQAPGKERELVAAISGRGASTYYADSVKGRFTISRDNAKNTVYLQMNSLKPEDTAVYYCAASLRYRYRYYASDYGYWGQGTQVTVSS | high polyreactivity |
| QVQLVESGGGLVQAGGSLRLSCAASGFTFYSYAMGWYRQAPGKEREFVAAISGSGTITFYADSVKGRFTISRDNAKNTVYLQMNSLKPEDTAVYYCNADKYYRWSSPRYDYWGQGTQVTVSS | low polyreactivity |
| QVQLVESGGGLVQAGGSLRLSCAASGRILVGYAMGWYRQAPGKERELVAAITGSGASTYYADSVKGRFKISRDNAKNTVYLQMNSLKPEDTAVYYCAASYFNYGVGIWYDYWGQGTQVTVSS | high polyreactivity |
| QVQLVESGGGLVQAGGSLRLSCAASGGIFVSYAMGWYRQAPGKERELVARINAVDGTNYADSVKGRFTISRDNAKYTVYLQMKSVKPEDTAVYYCAVRSPVLASDYGYYFLRDYWGQGTQVTVSS | low polyreactivity |
| QVQLVDSGGGLVQAGGSLRLSCAGSGLTFRFYAMVWYRQAPGKEREFVAAISSSGTTTYYADSVKGRFTISRDNAKNTVYLQMNSLKPEDTADFYCNKEYTTYGYDLEYDFWGQGTQVTVSS | low polyreactivity |
| QVQLVESGGGLVQAGGSLRLSCAASGSIFGFYGMGWYRQAPGKERELVAAISSRGGSTYYADSVKGRFTISRDNAKNTVYLQMNSLKPEDTAVYYCATERERTMGYWGQGTQVTVSW | high polyreactivity |
| QVQLVQSGGGLVQAGGSLRLSCAAMGWYRQAPGKERELVATITWSGGSTYYADSVKGRFTISRDNAKNTVYLQMNSLKPEDTAVYYCNARATLLSPANTILGYDYWGQGTQVTVSS | low polyreactivity |
| QVKLVESGGGLVQAGGSLRLSCAASGSTYHSNAMGWYRRAHGKEMEFVASISIGGSTNYADSVKGRYTISRDNAKNTVYLQMNSLKAEDTAVYYSATEPNPRRPRVDYDYWGQGTQVTVSS | low polyreactivity |
| QVQLVESGGGLVQAGGSLRLSCAASGRIFQRNTMGWYRQAPGKERELVAAITWNGGSTYYADSVKGRFTISRDNAKNTVFLQMNSMKPEDTAVDYCATAYRYSVHKALGFNYWGQGTQVTVSS | high polyreactivity |
| QVHLQESGGGLVQAGGSLRLSCPASGSISRYYDMGWYRQAPGKEREFVAGISGGAITYYADSVKGRFTISRDNAKNTVYLQMNSLKPEDTAVYYCAADTGVYQYHSYWGQGTQVTVSS | low polyreactivity |

| Sequence | polyreactivity (PSR sort gate) |
| --- | --- |
| QVQLVESGGALVQAGGSLRLSCAASGFTFIPNAMGWYRQAPGKERELVAAIYSSGGTTYYADSVKGRFTISRDTAKNTVYLQMNSLKTEDTAVYYCARRVYGYYIPYNYWGQATQVTVSS | high polyreactivity |
| QVQLVESGGGLVQAGGSLRLSCAASGSTFYTNAMGWYRQAPGKERELVAVITYRGGSTYYADSVKGRFTISRDNAKNTVYLQMNSLKPEDTAVYYCNARGTVPWYGYDYWGQGTQVTVSS | high polyreactivity |
| QVQLVESGGGLVQAGGSLRLSCAASGSTFYPYAMGWYRQAPGKERELVAAITYRGGSTYYADSVKGRFTISRDNAKNTVYLQMNSLKPEDTAVYYCAADIGRHTDNYDPRYDYWGQGTQVTVSS | low polyreactivity |
| QVQLVESGGGLVQAGGSLRLSCAASGRIFHLYAMGWYRQAPGKERELVATITYDGGSTYYADSVKGRFTISRDNAKDTVYLQMNSLKPEDTAVYYCASPSPHVGLKWEYDYWGQGTQVTVSS | low polyreactivity |
| QVQLVESGGGLVQAGGSLRLSCAASGSTFEDYTLGGYRQATGKERELVAAINWDGSRTYYADSVKGRFTISRDNAKNTVYLQMNSLKPEDTAVYDCAAHSAYHRRRMYYWGQGTQVTVSS | high polyreactivity |
| QVQLVESGGGLVQAGGSLRLSCAASGSTFVYYAMGWYRQAPGKERELVARITRGGGSTNYADSLKARFTISRDNAKNTVYLHMNSLKPEDTAVYYCAKRRKVTYDYWGQGTQVSVSS | high polyreactivity |
| QVQLVESGGGLVQAGGSLRLSCAASGSTSTYYAMGWYRQAPGKERELVAAITLGAGRKYADSVKGRFTISRDNAKNTVYLQMNSLKPEDTAVYYCAADSHIDHGKWAYDYWGQGTQVTVSS | low polyreactivity |
| QVQLVESGGGLVQAGGSLRLICAASGSTFYSYAMGWYRQVPGKERELVAAISRRGGSTYYADSVKGRFTISRDNAKNTVYLQMNSLKPEDTAVYYCAADWSRSSAEVDYWGQGTQVTVSS | high polyreactivity |
| QVQLVESGGGLVQAGGSLRLSCAASGSIFRRNAMGWYRQAPGKERELVATITSDGSTDYADSVKGRFTISRDNAKNTFYLQMISLKPEDTAVYYCAVAYLWRPYDFREFDYWGQGTQVTLSS | low polyreactivity |
| QVQLVESGGGLVQAGGSLRLSCAASGRTFAPYAMGWSRQAPGKEREFVAGITWSSSSTYADSVKGRFTISRDNAKNTVYLQMNSLKPEDTAVYYCAARHAKGGNRHYYWGQGTQVTVSS | high polyreactivity |
| QVQLVESGGGLVQAGGSLRLSCAASGSIFFPNAMGWYRQAPGKERELVAAIRGGTNTYYADSVKGRFTISRDNAKTTVYLQLNSLKPEDTAVYYCAARRSSHWFTYDYWGQGTQVTVSS | high polyreactivity |
| QVQLVESGGGLVQAGGSLRLSCAASGFIFSYYAMGWYRQAPRKERELVAAISKRGGGTYYADSVKGRFTISRDNAKNTVYLQMNSLKPEDTAVYYCNKDGGYGTGSSREYDSWGQGTQVTVSS | high polyreactivity |
| QVQLVESGGGLVQAGGSLRLSCAASGRIFDTNVMGWYRQAPGTDRDFVAAIRWNGGSTNYADSVKGRFTISRDNSKNTVYLQMNSLKPEDTAVYYCAADGYIGWRHIYEYWGQATQVTVSS | low polyreactivity |
| QVQLVESGGGLVQAGGSLRLSCAASGFIFARYAMGWYRQAPGKERELVATISKSGGRTYYADSVKGRFTISRDNAKNTVYLQMNSLKPEDTAVYYCATRYSTTSPGDDYWGQGTQVTVSS | high polyreactivity |
| QVQLVESGGGLVQAGGSLRLSCAASGSTFFAYAMGWYRQAPGKERELVAAITGRGSTYYADSVKGRFTISRDNAKNTVYLQMNSLKPEDTAVYYCAAQRSRRYYRLDYWGQGTQVTVSS | high polyreactivity |
| QVQLVESGGGLVQAGGSLLLSCAPSGITFVWYAMVWYRQAPGKERELVAAISRGGSTYYADSVKGRFTISRDNAKNTVYLQMNSLKPVDTAVYYCAARAPYIQQSVHISPRYYYSGQGTQVTVSS | high polyreactivity |
| QDQLVDSGGGLVQAGGSLRLSCAASGRISGYYAMGWYRQAPGKERELVASITYRGGSTYYADSVKGRFTISRDNAKNTVYLQINSLKPEDTAVYSCNFRYRPNRGSIGQPNSGKNWYDYWGLGTQVTVSS | high polyreactivity |
| QFQLVESGGGLVQAGGSLRLSCASSGGTFGNNDMGWYRQAPGKESELVAAIRSAGTTYYADSVKGRFTISRDNAKNTVYLQMNSLKPEDTAVYYCNADTTGYWSYGFQYYGEDYWGQGTQVTVSS | low polyreactivity |
| QVQLVESGGGLVQAGGSLRLSCAASGRIFFTYVMGWYRQAPGKERELVATIRVSGGSTYYADSVKGRFTISRDNAKNTVYLQMNSLKPEDTAVYYCAASGASWSLHYAGDYWGQGTQVTVSS | high polyreactivity |
| QVQLVESGGGLVQAGGSLRLSCAASGFTFYRYTMGWYRQAPGKERELVAVISSGGRTNYADSVKGRFTISRDNAKNTVYLQMNSLKPEDTAVYYCATRYPGYRDGYDYWGQGTQVSVSS | high polyreactivity |
| QVQLVESGGGLVQAGGSLRLSCAASGNTFYVKVMGWSRQAPGKERELVARITTSGGSTSYAESVKGRFTISRDNAKNTVSFQMNSMKPEDTAVYYCAASYHAFQNWEYDYWGQGTQVTVSS | low polyreactivity |
